Reference: US20140072613A1, “Compositions and Methods for Treating Cutaneous Scarring” (priority 2012, published 2014)

Legend:
Assay in all cases: biochemical
Type in all cases: biochemical
266 human kinases [1] = target: 266 human kinases (Homo sapiens, UniProt P24941); conditions: 100 μM
Summary of the method: (§1)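 Kinase phosphorylates cationic substrate with radiolabelled ATP phosphate; substrate retained on anionic filter membrane; scintillation count; % of 100% activity control.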

266 human kinases [2] = target: 266 human kinases (Homo sapiens, UniProt P50750); conditions: CDK9/cyclin T1(h); 100 μM
Chain of 266 human kinases (Homo sapiens, UniProt P50750) (P50750 whole entry): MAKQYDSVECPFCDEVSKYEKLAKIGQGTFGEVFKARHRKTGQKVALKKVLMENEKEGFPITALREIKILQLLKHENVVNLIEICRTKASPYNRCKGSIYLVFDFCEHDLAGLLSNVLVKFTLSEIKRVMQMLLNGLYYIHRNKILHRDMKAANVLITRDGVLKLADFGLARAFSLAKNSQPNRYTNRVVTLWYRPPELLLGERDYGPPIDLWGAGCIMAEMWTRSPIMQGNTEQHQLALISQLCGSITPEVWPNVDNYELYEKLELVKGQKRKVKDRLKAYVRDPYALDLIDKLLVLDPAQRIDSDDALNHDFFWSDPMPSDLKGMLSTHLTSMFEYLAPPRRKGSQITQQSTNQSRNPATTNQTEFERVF
Summary of the method: as §1

266 human kinases [3] = target: 266 human kinases (Homo sapiens, UniProt Q13464); conditions: ROCK-I(h); 100 μM
Chain of 266 human kinases (Homo sapiens, UniProt Q13464) (Q13464 whole entry): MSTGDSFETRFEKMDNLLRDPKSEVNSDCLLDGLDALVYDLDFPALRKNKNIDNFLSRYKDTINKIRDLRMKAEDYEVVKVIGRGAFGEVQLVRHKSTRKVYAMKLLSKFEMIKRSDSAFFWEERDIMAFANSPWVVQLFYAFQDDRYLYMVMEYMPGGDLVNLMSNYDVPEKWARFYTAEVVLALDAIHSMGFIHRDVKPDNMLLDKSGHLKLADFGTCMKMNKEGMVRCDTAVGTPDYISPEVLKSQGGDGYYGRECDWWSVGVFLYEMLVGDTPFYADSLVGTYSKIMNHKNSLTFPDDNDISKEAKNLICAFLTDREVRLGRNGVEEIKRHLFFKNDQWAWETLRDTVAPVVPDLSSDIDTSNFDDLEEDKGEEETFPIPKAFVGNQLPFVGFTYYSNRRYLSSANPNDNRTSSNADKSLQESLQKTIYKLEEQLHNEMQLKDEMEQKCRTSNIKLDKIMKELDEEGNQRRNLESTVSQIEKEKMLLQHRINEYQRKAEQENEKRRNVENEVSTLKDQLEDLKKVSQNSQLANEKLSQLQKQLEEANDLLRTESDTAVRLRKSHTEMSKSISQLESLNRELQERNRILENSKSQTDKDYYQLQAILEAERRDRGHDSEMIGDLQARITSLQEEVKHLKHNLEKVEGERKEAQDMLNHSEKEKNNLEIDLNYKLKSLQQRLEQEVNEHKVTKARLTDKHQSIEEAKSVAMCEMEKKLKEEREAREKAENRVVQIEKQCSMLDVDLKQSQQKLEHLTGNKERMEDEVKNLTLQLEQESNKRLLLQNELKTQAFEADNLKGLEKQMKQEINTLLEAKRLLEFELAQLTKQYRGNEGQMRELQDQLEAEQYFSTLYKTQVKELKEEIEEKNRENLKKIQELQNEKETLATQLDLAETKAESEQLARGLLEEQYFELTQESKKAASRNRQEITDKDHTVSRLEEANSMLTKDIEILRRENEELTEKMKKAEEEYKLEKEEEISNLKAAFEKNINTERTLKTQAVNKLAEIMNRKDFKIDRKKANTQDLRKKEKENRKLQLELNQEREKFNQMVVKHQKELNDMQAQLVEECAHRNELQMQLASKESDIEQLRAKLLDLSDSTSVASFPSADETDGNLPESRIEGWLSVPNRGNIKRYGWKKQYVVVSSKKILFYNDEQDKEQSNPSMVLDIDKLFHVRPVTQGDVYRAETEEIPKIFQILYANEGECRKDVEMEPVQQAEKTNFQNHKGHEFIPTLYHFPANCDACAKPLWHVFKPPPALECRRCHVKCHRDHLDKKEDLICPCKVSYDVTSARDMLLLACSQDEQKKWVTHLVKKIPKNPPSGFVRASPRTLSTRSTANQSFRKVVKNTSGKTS
Summary of the method: as §1

266 human kinases [4] = target: T1, 266 human kinases (Homo sapiens, UniProt P52333); conditions: JAK3(h); 100 μM
T1 sequence (P52333 1-1124): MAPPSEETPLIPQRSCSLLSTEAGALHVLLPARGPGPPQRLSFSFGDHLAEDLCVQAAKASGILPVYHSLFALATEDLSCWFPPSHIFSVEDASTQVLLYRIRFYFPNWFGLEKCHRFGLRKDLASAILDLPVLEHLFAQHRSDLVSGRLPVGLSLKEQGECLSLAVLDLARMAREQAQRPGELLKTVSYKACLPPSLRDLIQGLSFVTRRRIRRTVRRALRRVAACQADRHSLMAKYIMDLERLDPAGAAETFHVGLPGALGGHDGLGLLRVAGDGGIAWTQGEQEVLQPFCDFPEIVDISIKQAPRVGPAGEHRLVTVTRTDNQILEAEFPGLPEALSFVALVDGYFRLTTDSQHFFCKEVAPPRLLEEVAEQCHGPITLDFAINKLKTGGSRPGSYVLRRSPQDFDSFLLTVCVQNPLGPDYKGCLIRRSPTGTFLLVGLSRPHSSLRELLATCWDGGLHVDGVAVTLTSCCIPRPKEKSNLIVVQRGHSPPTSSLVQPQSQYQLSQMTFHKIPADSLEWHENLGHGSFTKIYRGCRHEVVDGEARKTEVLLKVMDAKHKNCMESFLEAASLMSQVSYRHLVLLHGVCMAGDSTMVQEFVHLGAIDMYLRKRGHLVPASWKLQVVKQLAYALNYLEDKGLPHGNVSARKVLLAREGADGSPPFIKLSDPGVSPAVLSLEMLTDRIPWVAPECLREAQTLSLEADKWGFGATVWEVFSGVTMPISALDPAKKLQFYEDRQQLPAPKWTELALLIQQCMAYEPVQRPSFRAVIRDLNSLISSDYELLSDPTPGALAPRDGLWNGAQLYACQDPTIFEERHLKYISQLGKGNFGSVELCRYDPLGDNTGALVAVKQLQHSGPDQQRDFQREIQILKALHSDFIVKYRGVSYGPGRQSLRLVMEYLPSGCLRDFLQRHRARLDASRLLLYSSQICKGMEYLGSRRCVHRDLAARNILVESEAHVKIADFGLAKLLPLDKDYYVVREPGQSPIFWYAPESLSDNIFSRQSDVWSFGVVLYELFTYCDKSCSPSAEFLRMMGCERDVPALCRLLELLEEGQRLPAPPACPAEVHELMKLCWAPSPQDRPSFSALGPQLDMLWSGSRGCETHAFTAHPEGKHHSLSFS
Summary of the method: as §1

266 human kinases [5] = target: T2, 266 human kinases (Homo sapiens, UniProt P51817); conditions: PrKX(h); 100 μM
T2 sequence (P51817 1-358): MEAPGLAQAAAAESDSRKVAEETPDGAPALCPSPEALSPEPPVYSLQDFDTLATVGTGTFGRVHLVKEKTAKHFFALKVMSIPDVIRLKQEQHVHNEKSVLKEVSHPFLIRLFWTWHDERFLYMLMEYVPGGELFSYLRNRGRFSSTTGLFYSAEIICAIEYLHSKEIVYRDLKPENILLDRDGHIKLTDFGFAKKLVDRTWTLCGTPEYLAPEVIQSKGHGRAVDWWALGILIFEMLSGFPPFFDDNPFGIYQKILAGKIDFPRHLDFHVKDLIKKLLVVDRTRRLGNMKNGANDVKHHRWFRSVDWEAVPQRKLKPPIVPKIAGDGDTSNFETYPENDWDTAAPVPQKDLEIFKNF
Summary of the method: as §1

266 human kinases [6] = target: 266 human kinases (Homo sapiens, UniProt P04049); conditions: c-RAF(h); 100 μM
Summary of the method: as §1

HRRIKAWLKKIKALARQLGVAA (mammal) [MMI-0500]
% activity (266 human kinases [1]; CDK2/cyclinA(h)): 87%
% activity (266 human kinases [1]; CDK2/cyclinE(h)): 19%
% activity (266 human kinases [2]): 6%
% activity (266 human kinases [3]): 17%
% activity (266 human kinases [4]): 95%
% activity (266 human kinases [5]): 57%
% activity (266 human kinases [6]): 19%
